The DeepSol protein solubility set

test: soluble on expression in E. coli; label from the status in PepcDB or PDB records

Sequence	soluble on expression in E. coli
MGSDKIHHHHHHAEAPLRPDQAAFRDLYREMVETDTSITTGSCTLLADRIEARLRGAGFADGQIHRFAVPEFPKEGGIVAILPGTSAKARPILLLGHLDVVVAKREDWTRDPYRLIEEGGYFYGRGVADMKAMDAIWVDMLMRFRKEGRKPRRTIKLALTCGEETSTAFNGAKWLAENRRDLIDAEFALNEGGSGRTDKPLEEGGRVVLQTIHVGEKTPVNYRVEATNPGGHSSMPVRDNAIYELSDALVRLRDYEFPVMLNDTTRAFFAKAGAARGDAMGKAMVAVSADPADKAAVALLDTDRSFHSMLRTTCVATLLDGGHANNALPQRAGANVNCRIFPGVTAEEVRGTLETVVADPRMTVVRTDNRGPDAKAPPLDPKIVGPAEKLVAKYYPGVPMVPMMSTGATDGVFLGAVGIPSYGPPGLFGNPDGNGVHGLNERISVQAVYAGRDLLTELVTAYAF	not soluble
MGSDKIHHHHHHAQRVITASGKYITKNIKVTRFDQIYLKGSPTIEYTQSPGASKVQIAGSDNLVDLVECRVEGSTLIVNMKSRTNISYGKEGRLKILVSSPMLKSASLQGSGDIHLGSLKVEGLDVSLTGSGDIVAENITCNSDFSALLKGSGDIDVKGQLRAKSVNLNLQGSGDLKVAGVTGSEISAMLQGSGDLKVGSTNITSTVMAKLSGSGDMDVLDIRANSVSGQLDGSGDMTLSGSACNATLVLNRSGELSARKLDAENVTAHVNGSGEISCTATKTLETNIQGSGEISYKGNPSIRSTGKNHLNRL	not soluble
MGSDKIHHHHHHATASESSKYIGLQLYSLRDLVKEEGIQKVLETAAKMGYKNLETASYDNGKIYGLAPAEFKKMVNDLGMKCTSAHLGQAFTKEKEAEVMSWWDQAIDAHNELGVKYMVQPWMPVNDKTTLDDLKMYCDYFNTVGYKTAAASIAFGYHNHDFEFRKIDDQLIYDFLLDNVSPNHVFFEMDVYWVMMGGGDPVAYLKNRPSQFKAIHIKDEKEIGASGKMNFKPIFDQMYANNVKDWYVEVEQYTNNDPVASVQQSYDFLNKADYVK	not soluble
MGSDKIHHHHHHCRDELSTAGGKWVESSLRTIQTDTCTVRLSTILSDSLATSGDTVCQIGTIDDPVWGKIKAAFYAEYDVPTVSFSENADYRFDSITIRFYSSGNYLGDTLSPQRISLHSLSENLSLDEGYLYTTSKVSYHSTPLASFTFTPTPGETIREHEIRLPDEWGVEWFEHFQAGSREMESQEYFRDYFKGIAFIPEEGGNCVNGFMVNDSSLCITLYYHQTETDATELSADFLPNSDLRFNQVSCDRSRTALSSLQSGLNNGLPSEKSEHQSYLQGLTGMYINIDFPFLNDLRAEGRLVTIESALLRLYPVKGTYGKQYPLPESLTLYTADENNVTEDVVTDISGSSVQTGSLVTDEMMGEDTYYSFDITSFLQSNLGTVGYNRKILQLMLPDNLFFTTLNGVVFGDARHPDSNPVKLTLLYKTYNP	not soluble
MGSDKIHHHHHHDYKLVIFASFNGKAYSDNPRYLFEYLRDHEEFASYHFVWAFKVKRSVNRAKVVKFNSFSYYYLLSKAKYWVFNSKMAPYYHKKGEQVYLQTWHGTPLKRLGHDILDNGITYYRSRLSYQQMLRSYDEDSRHWDYLISPNPFSSQAFTSAFNLDRGKLLEVGYPRVDFLVNADSNKCMELKRRYGLPLDKKVVLYAPTWRDDSFGIRGYRFELAVDFYKWKNQLGDDTVILFKPHYLISNVYQIPNDLSNFVYLMAASADINDAYLMSDVLITDYSSVFFDYANLNRPIYFYMYDFEQYEQELRGFYLNVPDELPNDVIRTEKELLRRIKEDIFDYDRLQVFNQVFNSWNDGKVSSKVAKRIFYEN	not soluble
MGSDKIHHHHHHEATETQNEKVKVKVETVSVQDVEQLSEFTATVEANIKNNIAPQTPFRIEKIFAEVGDHVKAGQLLAKMDATSLKQAKIQLDNQEIEFKRIDELYKVGGASKSAWDAQKTSLEVARETYKNLVENTQLLSPISGIVTARNYDSGDMYSGGNPIYTVEEIRPVKLMVNVSESLFTKVKKGHEVDIRLDVYGDEVFKGKVNLVYPTIDPATRTFPVEIKIANSDERVRPGMFARVTMSFGHMDHVVAPDRSIVKQSGAGDRYIYVCKDGKVSYQKVKLGRRMGDKYEIISGVEDGDQVVITGQSRLTNGMEVEIENE	not soluble
MGSDKIHHHHHHEDSNPNALSPGIFWKSEGDIMKGLTSVYGALQPNASWAIPFERYIVIDGYRSDEITHRDDVTSWMNISSFNVEPTNSVVKTEWTNLYKGINYANQCLTNIPTVPGDSESLNALKKQSIAEARFLRAYFYYRLYVNFGERVPIYKEALAGTDEEFYPPQANPGELVSLIETELKEVQSDLPESYEESEKGRVTRYTAAALLGKFYMFRKELSKAEVEFKKIIDKEGSLFGLMENWADNFDGMHKNNKESLFEIQFTGDRSGGQYEYNLFTVHLGPMAGLDAYEEAYPTDWMCQTLLADKTIDGKSSDRALHTLIFDDPECRPFYYKNGKSFKDYHKEGEIFWHKYVTYTEGMSDYWDYSFFNVSVIRYADVLLLYAECLNDKGETTEAINIINKVRARVNVPALPLTMSKAEVLKHLQDKERPCELALEGSRWYDLVRWGIVEETLKAHNKPFVENYVDTKHQLFPIPHSEFLLNPDWEQNPNYSK	not soluble
MGSDKIHHHHHHEKKDKKENDTSAAQATETDCTAAELVTTEPEAEITISEMIDQRIKEEGKIMMYRMHFGPSKTPLEITEDLNVNIISYDGKELIDYGNSSNRRGETRLGDIIHNKVDYSTYDIGAYGGSWKRHRRVSGGDEKYVEEEGYVQREITTDDSGNNTQMETLYLYSKGTLYTREEGSEVWNQTEKNDNLPVVAFGTFERIKLDGKTYMTFCVRDDLNLIKYIIIPDNKFTENKTVVYDTPGTEGTTVNTVDYLKEYQAVPKEELEQMIVFPGSKKAESSQAAD	not soluble
MGSDKIHHHHHHELPDNRTELNENNVGKILLSAYPTTAICEMGEMSSDNTDAYPNRFSSFNRLQEDLYKWADSAEQDQDSPHALWESCYMAISACNEVLKVIEDAGNPASLSAEKGEALVCRAYAHFLLANIFCNAYSSQASSDLGIPYMKTIETTVSPDYQRGTLEEVYQNIEKDLLEGLDLVTDIYAVPKYHFTKKAAQAFAARFYLYYVKSDKSNYTKVIDYATKVLGSNPATSVRDWKSLGALDINGSVQPNAYVDATNGANLLLVSAGSYWGYVHAPYGLGERYAHGPKVGNETCNSVGPWGSDYYMGVWSNSSALPTKIVVMKITQYKEVVDAVAGTINGHMINAAFTTDETLLCRAEAYAMKEMYPQAIADLNIWREAYTRSTTPLTTESINDFYGSMEYYTPTESTVKKKLNPDFTITNETQENVIHCILHARRLTTLHEGLRWQDIKRYGITIYRRLMNDNGTITVTDKLEPNDPRRAIQIPSDVISAGLKPNPRTK	not soluble
MGSDKIHHHHHHENKLVSGAVGLGFGTGPTFPGADENDSGLFPVVDLKIGQYVVVNQRGLGLEHSRSLGHGELSYGLGVGYDFTSRSVEDDLRLAGLSDVDAGAMATLFLEYQTGPFSYGLEVMRGLNSDGHEGTRAKLSGGYDIQLSERAGLSVSPYLIWADDNWMDSFFSVSNAQSVASGLAAYDANAGMSQAGLNLTASYALREQVIVFASVDYATLLGDAADSSVSFDDNAASLSAGVMFRF	not soluble
MGSDKIHHHHHHENLYFQGMKIKVALLDKDKEYLDRLTGVFNTKYADKLEVYSFTDEKNAIESVKEYRIDVLIAEEDFNIDKSEFKRNCGLAYFTGTPGIELIKDEIAICKYQRVDVIFKQILGVYSDMAANVATISGENDKSSVVIFTSPCGGVGTSTVAAACAIAHANMGKKVFYLNIEQCGTTDVFFQAEGNATMSDVIYSLKSRKANLLLKLESCIKQSQEGVSYFSSTKVALDILEISYADIDTLIGNIQGMDNYDEIIVDLPFSLEIEKLKLLSKAWRIIVVNDGSQLSNYKFMRAYESVVLLEQNDDINIIRNMNMIYNKFSNKNSEMLSNISIKTIGGAPRYEHATVRQIIEALTKMEFFEEILQ	soluble
